Results: patent US20090029005A1
Values joined by “and” are separate entries in the source; they are usually repeats but may differ in a detail not shown here. Equal values may be shown once.

Columns and labels:
[1] = target: Angiotensin-I Converting Enzyme (ACE); test: cell-based or functional assay
[2] = target: Angiotensin-I Converting Enzyme; test: cell-based or functional assay

Ovotransferrin (TRFE_CHICK), not hydrolysed and not digested, sequence (P02789 20-705 limits assumed): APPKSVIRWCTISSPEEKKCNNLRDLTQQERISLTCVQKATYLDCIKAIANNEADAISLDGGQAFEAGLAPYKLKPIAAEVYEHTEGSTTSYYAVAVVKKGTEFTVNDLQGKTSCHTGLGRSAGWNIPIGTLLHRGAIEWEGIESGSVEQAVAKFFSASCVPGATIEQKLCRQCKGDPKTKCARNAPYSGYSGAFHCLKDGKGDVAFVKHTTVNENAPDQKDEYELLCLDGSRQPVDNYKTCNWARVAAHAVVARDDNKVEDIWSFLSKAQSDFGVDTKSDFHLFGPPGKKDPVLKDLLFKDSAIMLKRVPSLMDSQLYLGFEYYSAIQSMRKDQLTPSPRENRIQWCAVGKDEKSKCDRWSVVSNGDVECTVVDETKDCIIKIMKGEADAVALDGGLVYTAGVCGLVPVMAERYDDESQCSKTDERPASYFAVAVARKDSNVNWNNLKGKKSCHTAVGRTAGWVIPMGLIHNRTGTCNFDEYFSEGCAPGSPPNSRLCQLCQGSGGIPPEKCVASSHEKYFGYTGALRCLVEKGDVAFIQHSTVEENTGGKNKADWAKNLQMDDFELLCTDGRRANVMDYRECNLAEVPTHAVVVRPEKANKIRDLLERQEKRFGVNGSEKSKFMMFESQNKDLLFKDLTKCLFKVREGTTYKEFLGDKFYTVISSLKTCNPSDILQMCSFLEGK

Row | Substance | ACE inhibition (% inhibition) at 0.5 mg/ml [1] | inhibition (%) at 0.0625 mg/ml [1] | inhibition (%) at 0.125 mg/ml [1] | inhibition (%) at 0.25 mg/ml [1] | inhibition (%) at 0.5 mg/ml [1] | inhibition (%) at 1 mg/ml [1] | inhibition (%) at 2 mg/ml [1] | also measured
1 | Egg White/Alcalase (LS 250903) | – | – | – | – | – | – | – | IC50 (mg/mL), ACE inhibition (Hip-His-Leu assay) [2]: 0.46 mg/mL
2 | Ovotransferrin/PTN hydrolysate | 64% and 68% and 60% | – | 28.3% and 37.9% | 51% and 49.8% | 67.8% and 59.9% | 80.3% and 84.3% | – | –
3 | Ovomucin, not hydrolysed and not digested | – | – | – | – | – | – | – | ACE inhibition (%) at 0.019 mg/ml, Hip-His-Leu/TNBS microtiter assay [1]: -0.4%; ACE inhibition (%) at 0.056 mg/ml, Hip-His-Leu/TNBS microtiter assay [1]: 5.2%; ACE inhibition (%) at 0.167 mg/ml, Hip-His-Leu/TNBS microtiter assay [1]: 2.2%; ACE inhibition (%) at 0.500 mg/ml, Hip-His-Leu/TNBS microtiter assay [1]: 2.1%
4 | Ovalbumin/Promod 258P hydrolysate | 53% and 49% and 58% | 14% and 8.7% | 40.7% and 23.2% | 37.3% and 33.8% | 48.6% and 57.6% | 87.5% and 67% | 103% and 78.2% | –
5 | Egg yolk/PTN hydrolysate | – | – | – | 27.6% and 44.3% | – | 75.7% and 59.9% | 96.9% and 78.1% | –
6 | Lysozyme (Lysozyme C, LYC_CHICK), not hydrolysed and not digested (from UniProt P00698 19-147) (enzyme) | – | – | – | – | – | – | – | ACE inhibition (%) at 0.167 mg/ml, Hip-His-Leu/TNBS microtiter assay [1]: -4.7%
7 | Ovalbumin/PEM hydrolysate | – | – | – | – | 51.4% and 27.7% | 57.3% and 36.3% | 61% and 39.1% | –
8 | Ovomucin/PEM hydrolysate | – | 25.9% and 5.5% | 13.3% and 9.1% | 41.1% and 19.6% and 36.1% | 66.3% and 43.1% and 48.6% | 51.3% and 62.3% and 66% | 73.1% and 78.1% and 88% | –
9 | Ovotransferrin/Protex 6L hydrolysate | 59% and 60% | 13.7% and 12% | 30.6% and 19.1% | 44.4% and 34.4% | 60.2% and 58.6% | 76.8% and 70.2% | 97.3% and 88% | –
10 | Ovalbumin/Alcalase hydrolysate | – | 23.4% and 3.1% | 7.3% and 16.2% | – | – | – | 89.2% and 74.8% | –
11 | EggWhite 1101/Promod 258P hydrolysate | – | 27.9% and 20% | 40.3% and 36.2% | 45% and 33.9% | 62.8% and 47.2% | 77.9% and 78.4% | – | –
12 | EggWhite 1101/Protex 6L hydrolysate | – | 17% and 11.9% | 20.2% and 23% | 31.3% and 33.3% | 50.6% and 44.4% | 63.2% and 62.2% | – | –
13 | Ovomucin/PTN hydrolysate | 50% and 55% and 45% | – | 19.7% and 16.9% | 43.8% and 21% | 55.3% and 44.7% | 65.5% and 50.9% | – | –
14 | Ovalbumin hydrolysate (enzyme of the column not resolvable: PEM, Newlase F or Alcalase) | – | -6.8% and 0% | 0% and 1.6% | 17.4% and 13.4% | 31.1% and 24.6% | 18.2% and 41.3% | 87.8% and 64.4% | –
15 | Lysozyme/Alcalase hydrolysate | 70% and 82% and 58% | 35.2% and 14.3% | – | – | 82.1% and 58.1% | 81.3% and 79.9% | 126% and 102% | –
16 | Ovotransferrin (TRFE_CHICK), not hydrolysed and not digested (from UniProt P02789 20-705) | – | – | – | – | – | – | – | ACE inhibition (%) at 0.019 mg/ml, Hip-His-Leu/TNBS microtiter assay [1]: 0.7%; ACE inhibition (%) at 0.056 mg/ml, Hip-His-Leu/TNBS microtiter assay [1]: -4.1%; ACE inhibition (%) at 0.167 mg/ml, Hip-His-Leu/TNBS microtiter assay [1]: 0.7%; ACE inhibition (%) at 0.500 mg/ml, Hip-His-Leu/TNBS microtiter assay [1]: -0.3%
17 | Lysozyme/PEM hydrolysate | 56% and 55% and 58% | 29.2% and 27.3% | 38% and 35.1% | 49.7% and 49.5% | 54.7% and 58% | – | 102% and 123% | –
18 | EggWhite 1101/Alcalase hydrolysate | – | 19.6% and 10.7% | 34.2% and 12.8% | 46.5% and 32.1% | 63.1% and 39.9% | 66.5% and 71.7% | – | –
19 | EggWhite 1102/Alcalase hydrolysate | – | 18.2% and 2.4% | 36.4% and 16.7% | 43% and 23.3% | 58.8% and 48.1% | 76.9% and 67% | 86.3% and 65.8% | –
20 | Lysozyme/Protex 6L hydrolysate | 71% and 74% and 69% | 42.4% and 30.9% | 42.2% and 44.6% | 65.8% and 58.3% | 73.9% and 68.7% | 83% and 83.5% | – | –
21 | Egg yolk/PEM hydrolysate | 58% and 62% and 53% | 15.4% and 25.4% | 28.8% and 52.8% | 45.3% and 36.6% | 62.1% and 52.9% | 69.8% and 64.6% | 99.7% and 96.6% | –
22 | Egg yolk/Newlase F hydrolysate | 57% and 51% | 15.5% and 21.6% | 21.7% and 18.2% | 24.1% and 36.1% | 51.3% and 57.3% | 69.5% and 80% | – | –
23 | Ovalbumin/Newlase F hydrolysate | – | 3.7% | 16.3% | 23.5% | 45.8% | 55.9% | 82.5% | –

More lines, main results first:

Row | ACE inhibition (% inhibition) at 0.5 mg/ml [1] | inhibition (%) at 0.0625 mg/ml [1] | inhibition (%) at 0.125 mg/ml [1] | inhibition (%) at 0.25 mg/ml [1] | inhibition (%) at 0.5 mg/ml [1] | inhibition (%) at 1 mg/ml [1] | inhibition (%) at 2 mg/ml [1] | Substance | also measured
24 | 56% and 57% and 55% | 24% and 22% | 25.5% and 33.2% | 37.1% and 43.8% | 57.3% and 55.2% | 67.2% and 69.9% | 81.7% and 86% | Ovomucin/Alcalase hydrolysate | ACE activity IC50; total hydrolysis time 11.5 hours (batch for animal study) [1]: 230 µg/mL; ACE inhibition IC50; hydrolysis 4 h, 2% enzyme, DH 0% [1]: > 2000 µg/mL; ACE inhibition IC50; hydrolysis 5 h, 4% enzyme, DH 5.0% [1]: 760 µg/mL; ACE inhibition IC50; hydrolysis 5 h, 4% enzyme, DH 12.0 [1]: 540 µg/mL; ACE inhibition IC50; hydrolysis 6 h, 4% enzyme, DH 7.7% [1]: 660 µg/mL; ACE inhibition IC50; hydrolysis 7 h, 6% enzyme, DH 12.9% [1]: 450 µg/mL; ACE inhibition IC50; hydrolysis 7.5 h, 6% enzyme, DH 15.0% [1]: 430 µg/mL; ACE inhibition IC50; hydrolysis 8 h, 6% enzyme, DH 21.7 [1]: 390 µg/mL; ACE inhibition IC50; hydrolysis 10.5 h, 8% enzyme, DH 21.2 [1]: 250 µg/mL; ACE inhibition IC50; hydrolysis 10.5 h, 8% enzyme, DH 23.9 [1]: 210 µg/mL; ACE inhibition IC50; hydrolysis 13.5 h, 10% enzyme, DH 22.0 [1]: 180 µg/mL; ACE inhibition IC50; hydrolysis 16.5 h, 12% enzyme, DH 21.1 [1]: 180 µg/mL
25 | – | 15% and 22.4% | 26.6% and 37% | 41.3% and 62.7% | – | – | 105% and 89.9% | Egg yolk/Protex 6L hydrolysate | –
26 | – | 16.3% and 4.9% | 24.7% and 19% | 33.2% and 41.7% | 47% and 49.2% | 58.4% and 66% | 60.2% and 71.8% | EggWhite 1102/Protex 6L hydrolysate | –
27 | 52% and 62% and 42% | 18.9% and 6.4% | – | – | 62.4% and 42% | 75.7% and 75.8% | 79.7% and 103% | Lysozyme/PTN hydrolysate | –
28 | – | -13.7% and 7.8% | – | 30.6% and 18.6% | 42.5% and 31.3% | 45.7% and 49.2% | 59.6% and 49.2% | Ovomucin/Newlase F hydrolysate | –
29 | 62% and 58% and 66% | 18.4% and -1% | 40% and 18.8% | 41.1% and 45.1% | 57.7% and 66.3% | 85.2% and 86.2% | 121% and 104% | Ovotransferrin/Promod 258P hydrolysate | –
30 | 68% and 76% and 61% | 30.9% and 6.5% | 45.7% and 25.1% | 59.1% and 41.9% | 75.8% and 61% | – | 100% | Egg yolk/Alcalase hydrolysate | –
31 | 70% and 71% and 69% | 26.9% and 28.7% | 33.7% and 50.9% | 58.6% and 51.6% | 70.5% and 69.1% | 96.1% and 83.1% | – | Ovotransferrin/Newlase F hydrolysate | inhibition (%) at 2 mg/ml (*Absorption above 3) [1]: 64.3% and 46.8%
32 | – | – | – | 42.8% and 19.5% | 62% and 42.7% | 75% and 61.9% | 91.3% and 76.8% | EggWhite 1102/Promod 258P hydrolysate | –
33 | 59% and 69% and 49% | 24.9% and 5.1% | 31.4% and 16.3% | 47.8% and 30.5% | 68.5% and 49% | 87.6% and 65% | 90.8% and 65.8% | Ovomucin/Protex 6L hydrolysate | –
34 | 55% and 52% and 57% | -19.4% and -10.7% | – | 9.8% and 31.8% | 52.4% and 56.6% | 69.1% and 73.8% | – | Ovotransferrin/PEM hydrolysate | –
